Source: patent US20090053213A1 (MorphoSys, published 2009)

B1: MOR04251 Fab (Fab, V domains shown)
VH: QVQLVESGGGLVQPGGSLRLSCAASGFTFSSHWMSWVRQAPGKGLEWVSNIWRGPYIYYADSVKGRFTISRDNSKNTLYLQMNSLRAEDTAVYYCARFQGYGGGFDYWGQGTLVTVSS
VL: DIELTQPPSVSVAPGQTARISCSGDNLPGKYVHWYQQKPGQAPVLVIYYDSNRPSGIPERFSGSNSGNTATLTISGTQAEDEADYYCQSRTQTTIVFGGGTKLTVLG
B2: MOR04283 Fab (Fab, V domains shown)
VH: QVQLVQSGAEVKKPGSSVKVSCKASGGTFNSFLISWVRQAPGQGLEWMGAISPWDGVTGYAQKFQGRVTITADESTSTAYMELSSLRSEDTAVYYCARKFISDSWGQGTLVTVSS
VL: DIQMTQSPSSLSASVGDRVTITCRASQTINNYLNWYQQKPGKAPKLLIYTASNLQSGVPSRFSGSGSGTDFTLTISSLQPEDFAVYYCQQYSGSPMTFGQGTKVEIKR
notes: Fab with FLAG and 6xHis tags
B3: MOR04297 Fab (Fab, V domains shown)
VH: QVQLVQSGAEVKKPGSSVKVSCKASGGTFNSFLISWVRQAPGQGLEWMGGIIPIFGTANYAQKFQGRVTITADESTSTAYMELSSLRSEDTAVYYCARKFISDSWGQGTLVTVSS
VL: DIQMTQSPSSLSASVGDRVTITCRASQTINNYLNWYQQKPGKAPKLLIYTASNLQSGVPSRFSGSGSGTDFTLTISSLQPEDFATYYCQQYSWVPHTFGQGTKVEIKR
notes: Fab with FLAG and 6xHis tags
B4: MOR04342 Fab (Fab, V domains shown)
VH: QVQLVQSGAEVKKPGSSVKVSCKASGGTFNSFLISWVRQAPGQGLEWMGAISPWDGVTGYAQKFQGRVTITADESTSTAYMELSSLRSEDTAVYYCARKFISDSWGQGTLVTVSS
VL: DIQMTQSPSSLSASVGDRVTITCRASQTINNYLNWYQQKPGKAPKLLIYTASNLQSGVPSRFSGSGSGTDFTLTISSLQPEDFATYYCQQYSWVPHTFGQGTKVEIKR
notes: X-cloned Fab (VH of MOR04283 x VL of MOR04297) with FLAG and 6xHis tags
B5: MOR04252 Fab (Fab, V domains shown)
VH: QVQLVESGGGLVQPGGSLRLSCAASGFTFSSYWMNWVRQAPGKGLEWVSGIENKYAGGATYYAASVKGRFTISRDNSKNTLYLQMNSLRAEDTAVYYCARGFGTDFWGQGTLVTVSS
VL: DIELTQPPSVSVAPGQTARISCSGDSIGKKYAYWYQQKPGQAPVLVIYKKRPSGIPERFSGSNSGNTATLTISGTQAEDEADYYCSSWDSTGLVFGGGTKLTVLG
notes: Fab with FLAG and 6xHis tags
B6: MOR04354 Fab (Fab, V domains shown)
VH: QVQLVESGGGLVQPGGSLRLSCAASGFTFSSYWMNWVRQAPGKGLEWVSGIESKWAGGATYYAAGVKGRFTISRDNSKNTLYLQMNSLRAEDTAVYYCARGFGTDFWGQGTLVTVSS
VL: DIELTQPPSVSVAPGQTARISCSGDSIGKKYAYWYQQKPGQAPVLVIYKKRPSGIPERFSGSNSGNTATLTISGTQAEDEADYYCSAWGDKGMVFGGGTKLTVLG
notes: X-cloned Fab (VH of MOR04290 x VL of MOR04302) with FLAG and 6xHis tags
B7: MOR04287 Fab (Fab, V domains shown)
VH: QVQLVESGGGLVQPGGSLRLSCAASGFTFSSYWMNWVRQAPGKGLEWVSGIENKRAGGATFYAASVKGRFTISRDNSKNTLYLQMNSLRAEDTAVYYCARGFGTDFWGQGTLVTVSS
VL: DIELTQPPSVSVAPGQTARISCSGDSIGKKYAYWYQQKPGQAPVLVIYKKRPSGIPERFSGSNSGNTATLTISGTQAEDEADYYCSSWDSTGLVFGGGTKLTVLG
notes: Fab with FLAG and 6xHis tags
B8: MOR04302 Fab (Fab, V domains shown)
VH: QVQLVESGGGLVQPGGSLRLSCAASGFTFSSYWMNWVRQAPGKGLEWVSGISYSGSETYYADSVKGRFTISRDNSKNTLYLQMNSLRAEDTAVYYCARGFGTDFWGQGTLVTVSS
VL: DIELTQPPSVSVAPGQTARISCSGDSIGKKYAYWYQQKPGQAPVLVIYKKRPSGIPERFSGSNSGNTATLTISGTQAEDEADYYCSAWGDKGMVFGGGTKLTVLG
notes: Fab with FLAG and 6xHis tags
B9: MOR04350 Fab (Fab, V domains shown)
VH: QVQLVESGGGLVQPGGSLRLSCAASGFTFSSYWMNWVRQAPGKGLEWVSGIENKRAGGATFYAASVKGRFTISRDNSKNTLYLQMNSLRAEDTAVYYCARGFGTDFWGQGTLVTVSS
VL: DIELTQPPSVSVAPGQTARISCSGDSIGKKYAYWYQQKPGQAPVLVIYKKRPSGIPERFSGSNSGNTATLTISGTQAEDEADYYCSAWGDKGMVFGGGTKLTVLG
notes: X-cloned Fab (VH of MOR04287 x VL of MOR04302) with FLAG and 6xHis tags
B10: MOR04290 Fab (Fab, V domains shown)
VH: QVQLVESGGGLVQPGGSLRLSCAASGFTFSSYWMNWVRQAPGKGLEWVSGIESKWAGGATYYAAGVKGRFTISRDNSKNTLYLQMNSLRAEDTAVYYCARGFGTDFWGQGTLVTVSS
VL: DIELTQPPSVSVAPGQTARISCSGDSIGKKYAYWYQQKPGQAPVLVIYKKRPSGIPERFSGSNSGNTATLTISGTQAEDEADYYCSSWDSTGLVFGGGTKLTVLG
notes: Fab with FLAG and 6xHis tags

Tests used:
[1] = target: T1, human GM-CSF (human, UniProt P04141 18-144); experiment: cell-based or functional assay
[2] = target: T1, human GM-CSF; experiment: FACS receptor inhibition assay: inhibition of binding of 0.5 µg/ml biotinylated GM-CSF to GM-CSF receptor alpha on CHO-GMRa#11 cells
Procedure: (§1) All stainings were performed in round bottom 96-well culture plates (Nalge Nunc) with 1-5×10⁵ cells per well. […] Cells were then washed once with 150 μl FACS buffer/well and taken up in 100 μl phycoerythrin-labeled streptavidin (BD Biosciences Pharmingen) which has been diluted 1:400 in FACS buffer. […] IC₅₀ values were determined from the dose response curves obtained using GraphPad Prism v3.03 software applying a non-linear regression curve fit.
(§2) IC₅₀ values were determined from the dose response curves obtained using GraphPad Prism v3.03 software applying a non-linear regression curve fit.

[3] = target: T1, human GM-CSF; experiment: SPR (Biacore), Fab over immobilized recombinant human GM-CSF (Peprotech), F1 chip; affinity estimated from off-rates
Procedure: A respective amount of HSA was immobilized on the reference flow cell. […] Fab was applied in concentration series of 6.3-200 nM at a flow rate of 20 μl/min.

[4] = target: T1, human GM-CSF; experiment: solution equilibrium titration (SET, ECL/BioVeris), Fab with human GM-CSF (Leucomax) in solution
[5] = target: T1, human GM-CSF; experiment: FACS receptor inhibition assay: antibody pre-incubated with 0.5 µg/ml biotinylated GM-CSF, binding to GM-CSF receptor alpha on CHO-GMRa#11 cells
Procedure: as §1, §2

[6] = target: T1, human GM-CSF; experiment: cell-based or functional assay; remark: listed apart in the source
[7] = target: T1, human GM-CSF; experiment: cell-based or functional assay; remark: listed apart in the source

T1 sequence (P04141 18-144): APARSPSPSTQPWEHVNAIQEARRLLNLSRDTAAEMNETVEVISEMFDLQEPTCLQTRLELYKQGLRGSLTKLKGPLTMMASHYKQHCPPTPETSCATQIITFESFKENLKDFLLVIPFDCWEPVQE

| Binder | IC50 (pM) in TF-1 proliferation assay, human GM-CSF 0.25 ng/ml [1] | IC50 x-fold improved compared to BVD2-21C11, TF-1 proliferation assay [1] | IC50 x-fold improved compared to Mab215, TF-1 proliferation assay [1] | % inhibition at 5 µg/ml antibody [2] | Kd [3] | Kd [4] | IC50 [5] | IC50 (pM) in TF-1 proliferation assay, human GM-CSF [6] | fold improvement of IC50 in TF-1 proliferation assay compared to parental MOR03929 [7] |
| --- | --- | --- | --- | --- | --- | --- | --- | --- | --- |
| B1 | 463 pM | 14.2 fold | 9.3 fold | ~100% | 0.07 nM | 0.0074 nM | 53 nM | – | – |
| B2 | – | – | – | – | – | 0.113 nM | – | 17300 pM | – |
| B3 | – | – | – | – | – | 0.0492 nM | – | 14000 pM | – |
| B4 | – | – | – | – | – | 0.0049 nM | – | 80 pM | – |
| B5 | 2010 pM | 3.2 fold | 2.1 fold | ~75% | 0.055 nM | 0.006 nM | 26 nM | – | – |
| B6 | 56 pM | 117 fold | 77.1 fold | ~75% | 0.021 nM | 0.0028 nM | 26 nM | – | > 2000 fold |
| B7 | 3380 pM | 1.9 fold | 1.3 fold | ~75% | – | 0.0179 nM | 25 nM | – | – |
| B8 | 10700 pM | – | – | ~75% | 0.174 nM | 0.0635 nM | 24 nM | – | – |
| B9 | 82 pM | 80 fold | 52.6 fold | ~75% | 0.019 nM | 0.0011 nM | 24 nM | – | > 2000 fold |
| B10 | 696 pM | 9.4 fold | 6.2 fold | ~75% | 0.122 nM | 0.0111 nM | 27 nM | – | – |
